Reference: patent US20140105889A1 (published 2014)

T1: human FcγRIIb (human, UniProt P31994 43-217)
T1 construct: also called FcγIIB; FcγRIIb extracellular region
T1 sequence: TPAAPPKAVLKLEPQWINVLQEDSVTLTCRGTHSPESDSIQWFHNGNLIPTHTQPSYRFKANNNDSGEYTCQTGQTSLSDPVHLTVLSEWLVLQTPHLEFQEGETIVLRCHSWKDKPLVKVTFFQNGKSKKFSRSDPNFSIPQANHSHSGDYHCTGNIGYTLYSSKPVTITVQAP

T2: human FcγRIIa type R (human, UniProt P12318 36-217)
T2 construct: also called Fcγ RIIaR; FcγRIIa(R)
T2 chain: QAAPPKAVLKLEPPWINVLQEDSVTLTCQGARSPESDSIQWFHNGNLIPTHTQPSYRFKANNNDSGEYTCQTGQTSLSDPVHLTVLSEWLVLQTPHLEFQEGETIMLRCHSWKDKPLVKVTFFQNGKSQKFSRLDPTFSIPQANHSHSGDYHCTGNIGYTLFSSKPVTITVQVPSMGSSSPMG

T3: human FcγRIIb (human, UniProt P31994 43-217, limits assumed)
T3 construct: Analyte in solution on Biacore; also called FcgRIIb; hFcgRIIb
T3 sequence: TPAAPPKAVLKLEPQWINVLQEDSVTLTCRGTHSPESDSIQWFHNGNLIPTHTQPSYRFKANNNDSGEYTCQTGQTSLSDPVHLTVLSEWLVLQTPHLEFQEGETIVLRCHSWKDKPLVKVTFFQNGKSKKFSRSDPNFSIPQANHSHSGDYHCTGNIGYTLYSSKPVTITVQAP

T4: human FcγRIIa(R) (human, UniProt P12318 36-217)
T4 construct: Analyte in solution on Biacore; also called FcγRIIa type R; FcgRIIaR
T4 chain: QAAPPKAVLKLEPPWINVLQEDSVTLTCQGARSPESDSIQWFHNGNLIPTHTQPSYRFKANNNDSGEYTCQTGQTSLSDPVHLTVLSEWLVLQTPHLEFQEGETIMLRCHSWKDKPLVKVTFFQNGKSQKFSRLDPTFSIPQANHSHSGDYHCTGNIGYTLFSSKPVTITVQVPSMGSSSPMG

T5: human FcγRIIa(H) (human, UniProt P12318 36-217)
T5 construct: Analyte in solution on Biacore; also called FcγRIIa type H; FcgRIIaH
T5 sequence: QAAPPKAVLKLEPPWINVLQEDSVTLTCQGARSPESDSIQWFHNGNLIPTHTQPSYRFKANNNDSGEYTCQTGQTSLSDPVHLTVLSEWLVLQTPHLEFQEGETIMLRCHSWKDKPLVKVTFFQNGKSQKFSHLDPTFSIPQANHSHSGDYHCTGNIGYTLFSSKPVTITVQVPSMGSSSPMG


How the values were obtained:
[1] = target: T1, human FcγRIIb; experiment: SPR (Biacore), antibody captured on chip, FcγR as analyte; binding amount divided by that of IL6R-F652/IL6R-L, times 100
[2] = target: T2, human FcγRIIa type R; experiment: as above
[3] = target: T6, human FcγRIIIa(F) (human, UniProt P08637 17-208, limits assumed); experiment: SPR (Biacore), antibody captured on chip, FcγR as analyte, HBS-EP+, 25°C;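 also: FcγR binding response divided by the amount of captured antibody, then expressed relative to the reference antibody ×100, with antibodies captured via immobilized Protein A, A/G, L or antigen peptides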
T6 construct: also called FcgRIIIaF; hFcgRIIIa(F)
T6 sequence (P08637 other isoform, or with tags, fused parts or gaps limits assumed): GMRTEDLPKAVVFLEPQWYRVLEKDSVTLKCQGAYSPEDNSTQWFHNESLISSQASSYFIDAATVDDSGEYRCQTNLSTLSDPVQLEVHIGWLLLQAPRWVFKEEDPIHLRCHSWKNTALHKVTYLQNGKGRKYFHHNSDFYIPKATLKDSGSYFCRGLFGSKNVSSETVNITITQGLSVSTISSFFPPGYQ
Experimental: (§1) Interaction between each modified antibody and Fcγ receptor prepared in the manner described above was analyzed using the Biacore T100 (GE Healthcare), Biacore T200 (GE Healthcare), Biacore A100 or Biacore 4000. HBS-EP+ (GE Healthcare) was used for the running buffer, and measurements were carried out at 25° C. The chips used were chips in which antigen peptides, Protein A (Thermo Scientific), Protein A/G (Thermo Scientific) or Protein L (ACTIGEN or BioVision) were immobilized on the Series S Sensor Chip CM5 (GE Healthcare) or Series S Sensor Chip CM4 (GE Healthcare) by amine coupling, or chips in which preliminarily biotinylated antigen peptides were allowed to interact and then immobilized on the Series S Sensor Chip SA (certified) (GE Healthcare). The target antibodies were captured on these sensor chips, Fcγ receptor diluted with the running buffer was allowed to interact, followed by measurement of the amount of bound antibody. The amounts bound were compared between antibodies. However, since the amount of Fcγ receptor bound depends on the amount of captured antibody, the values used for comparison were first corrected by dividing the amount of Fcγ receptor bound by the captured amount of each antibody. Through reaction with 10 mM glycine-HCl at pH 1.5, the sensor chips were regenerated by washing off antibody captured on the sensor chips and used repeatedly.
(§2) Binding strength was evaluated according to the following method based on the results of analyzing the interaction with each FcγR. […] That value was then further multiplied by 100, and the resulting value was used as an indicator of relative binding activity to each FcγR.

[4] = target: T7, human FcγRIa (human, UniProt P12314 16-292, limits assumed); experiment: as above
T7 construct: Analyte in solution on Biacore; also called FcgRIa; hFcgRIa
T7 sequence (P12314 16-292 limits assumed): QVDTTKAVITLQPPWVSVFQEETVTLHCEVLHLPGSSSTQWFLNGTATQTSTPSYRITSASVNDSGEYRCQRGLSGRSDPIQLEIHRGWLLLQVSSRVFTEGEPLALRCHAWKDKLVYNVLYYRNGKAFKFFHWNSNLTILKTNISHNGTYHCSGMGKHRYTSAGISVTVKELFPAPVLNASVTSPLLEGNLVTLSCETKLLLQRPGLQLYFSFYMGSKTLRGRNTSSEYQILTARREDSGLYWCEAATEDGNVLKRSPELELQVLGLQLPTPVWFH
Experimental: as §1, §2

[5] = target: T3, human FcγRIIb; experiment: as above
Experimental: as §1, §2

[6] = target: T4, human FcγRIIa(R); experiment: as above
Experimental: as §1, §2

[7] = target: T5, human FcγRIIa(H); experiment: as above
Experimental: as §1, §2

relative binding activity for FcγRIIb [1]	relative binding activity for FcγRIIaR [2]	Binder	other results
100 % of the binding amount of IL6R-F652/IL6R-L	100 % of the binding amount of IL6R-F652/IL6R-L	IL6R-F652/IL6R-L (antibody, human IgG1, Anti-human IL-6 receptor IgG1 antibody; H chain is IL6R-F11 (M252Y/N434Y in IL6R-G1d) with P238D (EU numbering); Control antibody of the PD variants; copies: 2 + 2) heavy: QVQLQESGPGLVKPSETLSLTCAVSGHSISHDHAWSWVRQPPGEGLEWIGFISYSGITNYNPSLQGRVTISRDNSKNTLYLQMNSLRAEDTAVYYCARSLARTTAMDYWGEGTLVTVSSASTKGPSVFPLAPSSKSTSGGTAALGCLVKDYFPEPVTVSWNSGALTSGVHTFPAVLQSSGLYSLSSVVTVPSSSLGTQTYICNVNHKPSNTKVDKKVEPKSCDKTHTCPPCPAPELLGGDSVFLFPPKPKDTLYISRTPEVTCVVVDVSHEDPEVKFNWYVDGVEVHNAKTKPREEQYNSTYRVVSVLTVLHQDWLNGKEYKCKVSNKALPAPIEKTISKAKGQPREPQVYTLPPSRDELTKNQVSLTCLVKGFYPSDIAVEWESNGQPENNYKTTPPVLDSDGSFFLYSKLTVDKSRWQQGNVFSCSVMHEALHYHYTQKSLSLSP light: DIQMTQSPSSLSASVGDRVTITCRASQDISSYLNWYQQKPGKAPKLLIYYTSRLHSGVPSRFSGSGSGTDFTFTISSLQPEDIATYYCQQGNTLPYTFGQGTKVEIK	–
106 % of the binding amount of IL6R-F652/IL6R-L	240 % of the binding amount of IL6R-F652/IL6R-L	IL6R-PD042/IL6R-L (antibody, human IgG1, PD variant: P238D/L234W introduced into IL6R-F11 (EU numbering); copies: 2 + 2) heavy: QVQLQESGPGLVKPSETLSLTCAVSGHSISHDHAWSWVRQPPGEGLEWIGFISYSGITNYNPSLQGRVTISRDNSKNTLYLQMNSLRAEDTAVYYCARSLARTTAMDYWGEGTLVTVSSASTKGPSVFPLAPSSKSTSGGTAALGCLVKDYFPEPVTVSWNSGALTSGVHTFPAVLQSSGLYSLSSVVTVPSSSLGTQTYICNVNHKPSNTKVDKKVEPKSCDKTHTCPPCPAPEWLGGDSVFLFPPKPKDTLYISRTPEVTCVVVDVSHEDPEVKFNWYVDGVEVHNAKTKPREEQYNSTYRVVSVLTVLHQDWLNGKEYKCKVSNKALPAPIEKTISKAKGQPREPQVYTLPPSRDELTKNQVSLTCLVKGFYPSDIAVEWESNGQPENNYKTTPPVLDSDGSFFLYSKLTVDKSRWQQGNVFSCSVMHEALHYHYTQKSLSLSP light: DIQMTQSPSSLSASVGDRVTITCRASQDISSYLNWYQQKPGKAPKLLIYYTSRLHSGVPSRFSGSGSGTDFTFTISSLQPEDIATYYCQQGNTLPYTFGQGTKVEIK	–
108 % of the binding amount of IL6R-F652/IL6R-L	380 % of the binding amount of IL6R-F652/IL6R-L	IL6R-PD082/IL6R-L (antibody, human IgG1, PD variant: P238D/G237F introduced into IL6R-F11 (EU numbering); copies: 2 + 2) heavy: QVQLQESGPGLVKPSETLSLTCAVSGHSISHDHAWSWVRQPPGEGLEWIGFISYSGITNYNPSLQGRVTISRDNSKNTLYLQMNSLRAEDTAVYYCARSLARTTAMDYWGEGTLVTVSSASTKGPSVFPLAPSSKSTSGGTAALGCLVKDYFPEPVTVSWNSGALTSGVHTFPAVLQSSGLYSLSSVVTVPSSSLGTQTYICNVNHKPSNTKVDKKVEPKSCDKTHTCPPCPAPELLGFDSVFLFPPKPKDTLYISRTPEVTCVVVDVSHEDPEVKFNWYVDGVEVHNAKTKPREEQYNSTYRVVSVLTVLHQDWLNGKEYKCKVSNKALPAPIEKTISKAKGQPREPQVYTLPPSRDELTKNQVSLTCLVKGFYPSDIAVEWESNGQPENNYKTTPPVLDSDGSFFLYSKLTVDKSRWQQGNVFSCSVMHEALHYHYTQKSLSLSP light: DIQMTQSPSSLSASVGDRVTITCRASQDISSYLNWYQQKPGKAPKLLIYYTSRLHSGVPSRFSGSGSGTDFTFTISSLQPEDIATYYCQQGNTLPYTFGQGTKVEIK	–
127 % of the binding amount of IL6R-F652/IL6R-L	222 % of the binding amount of IL6R-F652/IL6R-L	IL6R-PD080/IL6R-L (antibody, PD variant: P238D/G237D introduced into IL6R-F11 (EU numbering); copies: 2 + 2) heavy: QVQLQESGPGLVKPSETLSLTCAVSGHSISHDHAWSWVRQPPGEGLEWIGFISYSGITNYNPSLQGRVTISRDNSKNTLYLQMNSLRAEDTAVYYCARSLARTTAMDYWGEGTLVTVSSASTKGPSVFPLAPSSKSTSGGTAALGCLVKDYFPEPVTVSWNSGALTSGVHTFPAVLQSSGLYSLSSVVTVPSSSLGTQTYICNVNHKPSNTKVDKKVEPKSCDKTHTCPPCPAPELLGDDSVFLFPPKPKDTLYISRTPEVTCVVVDVSHEDPEVKFNWYVDGVEVHNAKTKPREEQYNSTYRVVSVLTVLHQDWLNGKEYKCKVSNKALPAPIEKTISKAKGQPREPQVYTLPPSRDELTKNQVSLTCLVKGFYPSDIAVEWESNGQPENNYKTTPPVLDSDGSFFLYSKLTVDKSRWQQGNVFSCSVMHEALHYHYTQKSLSLSP light: DIQMTQSPSSLSASVGDRVTITCRASQDISSYLNWYQQKPGKAPKLLIYYTSRLHSGVPSRFSGSGSGTDFTFTISSLQPEDIATYYCQQGNTLPYTFGQGTKVEIK	–
112 % of the binding amount of IL6R-F652/IL6R-L	175 % of the binding amount of IL6R-F652/IL6R-L	IL6R-PD043/IL6R-L (antibody, human IgG1, PD variant: P238D/L234Y introduced into IL6R-F11 (EU numbering); copies: 2 + 2) heavy: QVQLQESGPGLVKPSETLSLTCAVSGHSISHDHAWSWVRQPPGEGLEWIGFISYSGITNYNPSLQGRVTISRDNSKNTLYLQMNSLRAEDTAVYYCARSLARTTAMDYWGEGTLVTVSSASTKGPSVFPLAPSSKSTSGGTAALGCLVKDYFPEPVTVSWNSGALTSGVHTFPAVLQSSGLYSLSSVVTVPSSSLGTQTYICNVNHKPSNTKVDKKVEPKSCDKTHTCPPCPAPEYLGGDSVFLFPPKPKDTLYISRTPEVTCVVVDVSHEDPEVKFNWYVDGVEVHNAKTKPREEQYNSTYRVVSVLTVLHQDWLNGKEYKCKVSNKALPAPIEKTISKAKGQPREPQVYTLPPSRDELTKNQVSLTCLVKGFYPSDIAVEWESNGQPENNYKTTPPVLDSDGSFFLYSKLTVDKSRWQQGNVFSCSVMHEALHYHYTQKSLSLSP light: DIQMTQSPSSLSASVGDRVTITCRASQDISSYLNWYQQKPGKAPKLLIYYTSRLHSGVPSRFSGSGSGTDFTFTISSLQPEDIATYYCQQGNTLPYTFGQGTKVEIK	–
101 % of the binding amount of IL6R-F652/IL6R-L	117 % of the binding amount of IL6R-F652/IL6R-L	IL6R-PD081/IL6R-L (antibody, human IgG1, PD variant: P238D/G237E introduced into IL6R-F11 (EU numbering); copies: 2 + 2) heavy: QVQLQESGPGLVKPSETLSLTCAVSGHSISHDHAWSWVRQPPGEGLEWIGFISYSGITNYNPSLQGRVTISRDNSKNTLYLQMNSLRAEDTAVYYCARSLARTTAMDYWGEGTLVTVSSASTKGPSVFPLAPSSKSTSGGTAALGCLVKDYFPEPVTVSWNSGALTSGVHTFPAVLQSSGLYSLSSVVTVPSSSLGTQTYICNVNHKPSNTKVDKKVEPKSCDKTHTCPPCPAPELLGEDSVFLFPPKPKDTLYISRTPEVTCVVVDVSHEDPEVKFNWYVDGVEVHNAKTKPREEQYNSTYRVVSVLTVLHQDWLNGKEYKCKVSNKALPAPIEKTISKAKGQPREPQVYTLPPSRDELTKNQVSLTCLVKGFYPSDIAVEWESNGQPENNYKTTPPVLDSDGSFFLYSKLTVDKSRWQQGNVFSCSVMHEALHYHYTQKSLSLSP light: DIQMTQSPSSLSASVGDRVTITCRASQDISSYLNWYQQKPGKAPKLLIYYTSRLHSGVPSRFSGSGSGTDFTFTISSLQPEDIATYYCQQGNTLPYTFGQGTKVEIK	–
101 % of the binding amount of IL6R-F652/IL6R-L	138 % of the binding amount of IL6R-F652/IL6R-L	IL6R-PD079/IL6R-L (antibody, human IgG1, PD variant: P238D/G237A introduced into IL6R-F11 (EU numbering); copies: 2 + 2) heavy: QVQLQESGPGLVKPSETLSLTCAVSGHSISHDHAWSWVRQPPGEGLEWIGFISYSGITNYNPSLQGRVTISRDNSKNTLYLQMNSLRAEDTAVYYCARSLARTTAMDYWGEGTLVTVSSASTKGPSVFPLAPSSKSTSGGTAALGCLVKDYFPEPVTVSWNSGALTSGVHTFPAVLQSSGLYSLSSVVTVPSSSLGTQTYICNVNHKPSNTKVDKKVEPKSCDKTHTCPPCPAPELLGADSVFLFPPKPKDTLYISRTPEVTCVVVDVSHEDPEVKFNWYVDGVEVHNAKTKPREEQYNSTYRVVSVLTVLHQDWLNGKEYKCKVSNKALPAPIEKTISKAKGQPREPQVYTLPPSRDELTKNQVSLTCLVKGFYPSDIAVEWESNGQPENNYKTTPPVLDSDGSFFLYSKLTVDKSRWQQGNVFSCSVMHEALHYHYTQKSLSLSP light: DIQMTQSPSSLSASVGDRVTITCRASQDISSYLNWYQQKPGKAPKLLIYYTSRLHSGVPSRFSGSGSGTDFTFTISSLQPEDIATYYCQQGNTLPYTFGQGTKVEIK	–
–	–	GpH7-B3 variant P331R / GpL16-k0 (antibody, human IgG1, Anti-glypican-3 IgG1; constant region B3 = G1d with K439E) heavy: not shown light: DIVMTQSPLSLPVTPGEPASISCQASESLVHSNRNTYLHWYLQKPGQSPQLLIYKVSNRFSGVPDRFSGSGSGTDFTLKISRVEAEDVGVYYCSQNTHVPPTFGQGTKVEIE	relative binding activity (% of GpH7-B3/GpL16-k0) [3]: 38%; relative binding activity (% of GpH7-B3/GpL16-k0) [4]: 95%; relative binding activity (% of GpH7-B3/GpL16-k0) [5]: 55%; relative binding activity (% of GpH7-B3/GpL16-k0) [6]: 64%; relative binding activity (% of GpH7-B3/GpL16-k0) [7]: 59%
